Experimental data taken from article PMC11698917 (Nature Communications, 2025).
“And” between values parts separate entries of the source, which are not always exact repeats. Identical values can stand only once.

T1: human VANGL2, full-length (FL), purified (human, UniProt Q9ULK5 1-521)
T1 sequence (looked up): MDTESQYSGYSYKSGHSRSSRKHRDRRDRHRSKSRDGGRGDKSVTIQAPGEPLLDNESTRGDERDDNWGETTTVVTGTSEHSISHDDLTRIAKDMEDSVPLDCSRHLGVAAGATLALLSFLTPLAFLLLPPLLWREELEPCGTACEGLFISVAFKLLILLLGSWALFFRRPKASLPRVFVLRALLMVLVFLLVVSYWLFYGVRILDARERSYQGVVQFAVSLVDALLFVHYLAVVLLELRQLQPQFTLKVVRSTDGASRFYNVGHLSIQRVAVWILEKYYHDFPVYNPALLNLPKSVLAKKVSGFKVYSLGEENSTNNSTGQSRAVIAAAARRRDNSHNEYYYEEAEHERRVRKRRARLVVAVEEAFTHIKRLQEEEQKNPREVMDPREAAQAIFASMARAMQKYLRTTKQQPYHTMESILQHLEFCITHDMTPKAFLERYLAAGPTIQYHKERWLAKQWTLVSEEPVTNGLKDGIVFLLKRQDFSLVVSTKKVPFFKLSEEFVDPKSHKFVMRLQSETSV


Tests used:
[1] = target: the molecule itself; experiment: AUC
[2] = target: T1, human VANGL2, full-length (FL), purified; experiment: cryo-EM structure

| binding result [2] | Binder | stoichiometry N [1] |
| --- | --- | --- |
|  | human VANGL1, full-length (FL), purified (natural protein, UniProt Q8TAA9 1-524, looked up) MDTESTYSGYSYYSSHSKKSHRQGERTRERHKSPRNKDGRGSEKSVTIQPPTGEPLLGNDSTRTEEVQDDNWGETTTAITGTSEHSISQEDIARISKDMEDSVGLDCKRYLGLTVASFLGLLVFLTPIAFILLPPILWRDELEPCGTICEGLFISMAFKLLILLIGTWALFFRKRRADMPRVFVFRALLLVLIFLFVVSYWLFYGVRILDSRDRNYQGIVQYAVSLVDALLFIHYLAIVLLELRQLQPMFTLQVVRSTDGESRFYSLGHLSIQRAALVVLENYYKDFTIYNPNLLTASKFRAAKHMAGLKVYNVDGPSNNATGQSRAMIAAAARRRDSSHNELYYEEAEHERRVKKRKARLVVAVEEAFIHIQRLQAEEQQKAPGEVMDPREAAQAIFPSMARALQKYLRITRQQNYHSMESILQHLAFCITNGMTPKAFLERYLSAGPTLQYDKDRWLSTQWRLVSDEAVTNGLRDGIVFVLKCLDFSLVVNVKKIPFIILSEEFIDPKSHKFVLRLQSETSV | ~6 and 3 |
| binds | NPGMNRFLGLYGEDDDSWCSSSSSSSDSEEEGYFLGQPIPQPRPQR (peptide, UniProt Q96MT3 745-790, looked up) [PK1^745-790 peptide, purified from E. coli] |  |
